Residue numbers refer to the chain shown, from its start. Names may count otherwise.
B1: Lp Nox (Lactiplantibacillus pentosus; D177W/G178E/I158S/V240L) (protein)
chain: MKVIVIGCTHAGTAAVNQILASNPETDVTIYERNDNVSFLSCGIALYLGGEVADPQGLFYSSPEQLAKLGANVHMQHDVTDVDTENHEITVTDLKTGESKKDYYDKLVVTTGSWPVIPPIDGIDSPNVYLCKNWTHAQSLWEAAKPAKRVIVIGGGYSGTELVEAYQKQGKEVTLIWELPRILNKYLDKGFTDRVEKDFVDHGIKMALNQMVKGFSDDGKEVTVKTDKGSYTADMAILCLGFRPNTSLLKGKVDMNPNGSIKTNDYMQTSDPDIYGAGDSVAVHYNPTKKDAYIPLATNAVRQGTLVGLNIFKPTRKYMGTQSTSGLMLFGKTIVSSGMTLEHAQAEKVPAEAVTFEDNYRPEFMPTTKPVLMQLVYNPETREILGAQFMSEHDVSQSANVISVMIQNHNTIDDLGFVDMFFQPIYDRPFNYLNLLGQAAIAHAAEKVTE
notes: recombinant from E. coli BL21(DE3), pQElac vector (pLS504), purified on His-Spin column (His-tag implied); FAD added at lysis
B2: Lp Nox (Lactiplantibacillus pentosus) (protein)
chain: B1 chain with S158I, W177D, E178G, L240V
notes: as for B1
B3: Lp Nox (Lactiplantibacillus pentosus; D177W/I158S/V240L) (protein)
chain: B1 chain with E178G
notes: as for B1

What was measured:
XenA = biological target: T1, XenA (Pseudomonas putida, UniProt Q9R9V9); assay: specific activity, absorbance at […] nm; format: biochemical; conditions: 0.2 mM reduced cofactor, 5 mM ketoisophorone, 200 mM potassium phosphate pH 7.5, 37 °C
T1 construct: purified recombinant enzyme (plasmid pEK102 carries XenA WT)

purified protein [1] = substrate: NC(=O)C1=CN([C@@H]2O[C@H](COP(=O)(O)OP(=O)(O)OC[C@H]3O[C@@H](n4cnc5c(N)ncnc54)[C@H](O)[C@@H]3O)[C@@H](O)[C@H]2O)C=CC1; assay: purified protein; format: biochemical, Lactiplantibacillus pentosus; conditions: 50 mM Tris-HCl pH 7.0, 37 °C, apparent
purified protein [2] = substrate: NC(=O)C1=CN([C@@H]2O[C@H](COP(=O)(O)OP(=O)(O)OC[C@H]3O[C@@H](n4cnc5c(N)ncnc54)[C@H](OP(=O)(O)O)[C@@H]3O)[C@@H](O)[C@H]2O)C=CC1; assay: purified protein; format: biochemical, Lactiplantibacillus pentosus; conditions: 50 mM Tris-HCl pH 7.0, 37 °C, apparent

T1 sequence (Q9R9V9 entry or part of it): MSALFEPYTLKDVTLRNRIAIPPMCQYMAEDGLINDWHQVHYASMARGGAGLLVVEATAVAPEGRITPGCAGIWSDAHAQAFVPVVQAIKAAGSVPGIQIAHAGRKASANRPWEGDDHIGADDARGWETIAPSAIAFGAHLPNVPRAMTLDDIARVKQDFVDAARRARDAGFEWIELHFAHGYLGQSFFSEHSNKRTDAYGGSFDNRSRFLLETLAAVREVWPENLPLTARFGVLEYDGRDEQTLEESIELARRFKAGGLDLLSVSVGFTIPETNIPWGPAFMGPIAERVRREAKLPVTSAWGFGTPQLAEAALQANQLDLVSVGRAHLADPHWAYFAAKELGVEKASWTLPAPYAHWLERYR

| Molecule | specific activity, absorbance at 340 nm (XenA) | Km (purified protein [1]) | kcat (purified protein [1]) | kcat/Km (purified protein [1]) | Km (purified protein [2]) | kcat (purified protein [2]) | kcat/Km (purified protein [2]) |
| --- | --- | --- | --- | --- | --- | --- | --- |
| NC(=O)C1=CN([C@@H]2O[C@H](COP(=O)(O)O)[C@@H](O)[C@H]2O)C=CC1 [NMNH] | Specific activities of redox partners toward NMNH. | – | – | – | – | – | – |
| B1 | – | 1900 ± 40 µM | 31 ± 1 s⁻¹ | 17000 ± 200 M⁻¹ s⁻¹ | 1100 ± 100 µM | 28 ± 1 s⁻¹ | 26000 ± 1000 M⁻¹ s⁻¹ |
| B2 | – | 25 ± 1 µM | 21 ± 0.3 s⁻¹ | 840000 ± 10000 M⁻¹ s⁻¹ | 1900 ± 200 µM | 18 ± 2 s⁻¹ | 9300 ± 200 M⁻¹ s⁻¹ |
| B3 | – | 1700 ± 200 µM | 47 ± 4 s⁻¹ | 28000 ± 1000 M⁻¹ s⁻¹ | 890 ± 40 µM | 27 ± 2 s⁻¹ | 31000 ± 1000 M⁻¹ s⁻¹ |
